Here are results for 7 molecules from article PMC7117317 (Veterinary Microbiology, 2019).

B1: Nb114 (VHH)
VHH: QVQLQESGGGSVQSGGSLRLSCAASGYTYQTYSMGWFRQAPGKEREGVAAIDDDGSTMYADSVKGRFTISQDSAKNTLYLQMNSLKPEDTAVYYCAASGFRGLLEFMRNIWVDYWGQGTQVTVSS
B2: Nb20 (VHH)
VHH: QVQLQESGGGSVQSGGSLRLSCRAVDGSGACMGWFRQAPGKEREGVAVIARDGSTNYAHSVRGRFTISQDNAKNTLYLQMNGLKPDDTAMYYCAAGPRFRSCSTSPSFYTSWGQGTQVTVSS
B3: Nb45 (VHH)
VHH: QVQLQESGGGSVQSGGSLRLSCARSGYARRIYSMAWFRQAPGKEREGVAILNDDGNPTYAGSVKGRFTISRDNAKNTLYLQMNSLKPEDTAMYYCAADLTAQSYTRDRLLTSAYNVWGQGTQVTVSS
B4: Nb60 (VHH)
VHH: QVQLQESGGGSVQPGGSLRLSCAASGFAVSSVAMSWVRQAPGKGLEWVSSINRYGFRVYADSVTGRFTISRDNAKNTLYLQLNSLKTEDTAMYYCSKDDDANWLNGRRGQGTQVTVSS
B5: Nb5 (VHH)
VHH: QVQLQESGGGSVQSGGSLRLSCAASTYTYSSGCMGWFRQAPGKEREGVATIDSDGSTTYADSVKGRFTISQDNAKNTLQLQMNSLKPEDTAMYYCAADDFWICSIIGRPGVADFRYWGQGTQVTVSS
B6: Nb100 (VHH)
VHH: QVQLQESGGGSVQSGGSLRLSCAASGYRRYCMAWFRQAPGKEREGVASIRSDGSTRYADSVKGRFSISQDNAENTLYLQMNSLKPEDTAMYYCAADSSAGCYSVHNSLLARSTYNYWGQGTQVTVSS
B7: Nb54 (VHH)
VHH: QVQLQESGGGSVQSGGSLRLSCAASTYTYNNYCMGWFRQAPGKEREGVASIERFGHTIFADSVKGRFTISRDNTKNTLYLQMNSLKPEDTAMYYCATERPSAYCSDSFTFNYWGQGTQVTVSS

This experiment deals with BVDV NS5B-His recombinant protein (Bovine viral diarrhea virus 1, strain …, UniProt P19711). Nature of the experiment: ELISA. (An ELISA detects its analyte on a solid surface through an enzyme-linked reagent.)
Chain of BVDV NS5B-His recombinant protein (P19711 whole entry, looked up): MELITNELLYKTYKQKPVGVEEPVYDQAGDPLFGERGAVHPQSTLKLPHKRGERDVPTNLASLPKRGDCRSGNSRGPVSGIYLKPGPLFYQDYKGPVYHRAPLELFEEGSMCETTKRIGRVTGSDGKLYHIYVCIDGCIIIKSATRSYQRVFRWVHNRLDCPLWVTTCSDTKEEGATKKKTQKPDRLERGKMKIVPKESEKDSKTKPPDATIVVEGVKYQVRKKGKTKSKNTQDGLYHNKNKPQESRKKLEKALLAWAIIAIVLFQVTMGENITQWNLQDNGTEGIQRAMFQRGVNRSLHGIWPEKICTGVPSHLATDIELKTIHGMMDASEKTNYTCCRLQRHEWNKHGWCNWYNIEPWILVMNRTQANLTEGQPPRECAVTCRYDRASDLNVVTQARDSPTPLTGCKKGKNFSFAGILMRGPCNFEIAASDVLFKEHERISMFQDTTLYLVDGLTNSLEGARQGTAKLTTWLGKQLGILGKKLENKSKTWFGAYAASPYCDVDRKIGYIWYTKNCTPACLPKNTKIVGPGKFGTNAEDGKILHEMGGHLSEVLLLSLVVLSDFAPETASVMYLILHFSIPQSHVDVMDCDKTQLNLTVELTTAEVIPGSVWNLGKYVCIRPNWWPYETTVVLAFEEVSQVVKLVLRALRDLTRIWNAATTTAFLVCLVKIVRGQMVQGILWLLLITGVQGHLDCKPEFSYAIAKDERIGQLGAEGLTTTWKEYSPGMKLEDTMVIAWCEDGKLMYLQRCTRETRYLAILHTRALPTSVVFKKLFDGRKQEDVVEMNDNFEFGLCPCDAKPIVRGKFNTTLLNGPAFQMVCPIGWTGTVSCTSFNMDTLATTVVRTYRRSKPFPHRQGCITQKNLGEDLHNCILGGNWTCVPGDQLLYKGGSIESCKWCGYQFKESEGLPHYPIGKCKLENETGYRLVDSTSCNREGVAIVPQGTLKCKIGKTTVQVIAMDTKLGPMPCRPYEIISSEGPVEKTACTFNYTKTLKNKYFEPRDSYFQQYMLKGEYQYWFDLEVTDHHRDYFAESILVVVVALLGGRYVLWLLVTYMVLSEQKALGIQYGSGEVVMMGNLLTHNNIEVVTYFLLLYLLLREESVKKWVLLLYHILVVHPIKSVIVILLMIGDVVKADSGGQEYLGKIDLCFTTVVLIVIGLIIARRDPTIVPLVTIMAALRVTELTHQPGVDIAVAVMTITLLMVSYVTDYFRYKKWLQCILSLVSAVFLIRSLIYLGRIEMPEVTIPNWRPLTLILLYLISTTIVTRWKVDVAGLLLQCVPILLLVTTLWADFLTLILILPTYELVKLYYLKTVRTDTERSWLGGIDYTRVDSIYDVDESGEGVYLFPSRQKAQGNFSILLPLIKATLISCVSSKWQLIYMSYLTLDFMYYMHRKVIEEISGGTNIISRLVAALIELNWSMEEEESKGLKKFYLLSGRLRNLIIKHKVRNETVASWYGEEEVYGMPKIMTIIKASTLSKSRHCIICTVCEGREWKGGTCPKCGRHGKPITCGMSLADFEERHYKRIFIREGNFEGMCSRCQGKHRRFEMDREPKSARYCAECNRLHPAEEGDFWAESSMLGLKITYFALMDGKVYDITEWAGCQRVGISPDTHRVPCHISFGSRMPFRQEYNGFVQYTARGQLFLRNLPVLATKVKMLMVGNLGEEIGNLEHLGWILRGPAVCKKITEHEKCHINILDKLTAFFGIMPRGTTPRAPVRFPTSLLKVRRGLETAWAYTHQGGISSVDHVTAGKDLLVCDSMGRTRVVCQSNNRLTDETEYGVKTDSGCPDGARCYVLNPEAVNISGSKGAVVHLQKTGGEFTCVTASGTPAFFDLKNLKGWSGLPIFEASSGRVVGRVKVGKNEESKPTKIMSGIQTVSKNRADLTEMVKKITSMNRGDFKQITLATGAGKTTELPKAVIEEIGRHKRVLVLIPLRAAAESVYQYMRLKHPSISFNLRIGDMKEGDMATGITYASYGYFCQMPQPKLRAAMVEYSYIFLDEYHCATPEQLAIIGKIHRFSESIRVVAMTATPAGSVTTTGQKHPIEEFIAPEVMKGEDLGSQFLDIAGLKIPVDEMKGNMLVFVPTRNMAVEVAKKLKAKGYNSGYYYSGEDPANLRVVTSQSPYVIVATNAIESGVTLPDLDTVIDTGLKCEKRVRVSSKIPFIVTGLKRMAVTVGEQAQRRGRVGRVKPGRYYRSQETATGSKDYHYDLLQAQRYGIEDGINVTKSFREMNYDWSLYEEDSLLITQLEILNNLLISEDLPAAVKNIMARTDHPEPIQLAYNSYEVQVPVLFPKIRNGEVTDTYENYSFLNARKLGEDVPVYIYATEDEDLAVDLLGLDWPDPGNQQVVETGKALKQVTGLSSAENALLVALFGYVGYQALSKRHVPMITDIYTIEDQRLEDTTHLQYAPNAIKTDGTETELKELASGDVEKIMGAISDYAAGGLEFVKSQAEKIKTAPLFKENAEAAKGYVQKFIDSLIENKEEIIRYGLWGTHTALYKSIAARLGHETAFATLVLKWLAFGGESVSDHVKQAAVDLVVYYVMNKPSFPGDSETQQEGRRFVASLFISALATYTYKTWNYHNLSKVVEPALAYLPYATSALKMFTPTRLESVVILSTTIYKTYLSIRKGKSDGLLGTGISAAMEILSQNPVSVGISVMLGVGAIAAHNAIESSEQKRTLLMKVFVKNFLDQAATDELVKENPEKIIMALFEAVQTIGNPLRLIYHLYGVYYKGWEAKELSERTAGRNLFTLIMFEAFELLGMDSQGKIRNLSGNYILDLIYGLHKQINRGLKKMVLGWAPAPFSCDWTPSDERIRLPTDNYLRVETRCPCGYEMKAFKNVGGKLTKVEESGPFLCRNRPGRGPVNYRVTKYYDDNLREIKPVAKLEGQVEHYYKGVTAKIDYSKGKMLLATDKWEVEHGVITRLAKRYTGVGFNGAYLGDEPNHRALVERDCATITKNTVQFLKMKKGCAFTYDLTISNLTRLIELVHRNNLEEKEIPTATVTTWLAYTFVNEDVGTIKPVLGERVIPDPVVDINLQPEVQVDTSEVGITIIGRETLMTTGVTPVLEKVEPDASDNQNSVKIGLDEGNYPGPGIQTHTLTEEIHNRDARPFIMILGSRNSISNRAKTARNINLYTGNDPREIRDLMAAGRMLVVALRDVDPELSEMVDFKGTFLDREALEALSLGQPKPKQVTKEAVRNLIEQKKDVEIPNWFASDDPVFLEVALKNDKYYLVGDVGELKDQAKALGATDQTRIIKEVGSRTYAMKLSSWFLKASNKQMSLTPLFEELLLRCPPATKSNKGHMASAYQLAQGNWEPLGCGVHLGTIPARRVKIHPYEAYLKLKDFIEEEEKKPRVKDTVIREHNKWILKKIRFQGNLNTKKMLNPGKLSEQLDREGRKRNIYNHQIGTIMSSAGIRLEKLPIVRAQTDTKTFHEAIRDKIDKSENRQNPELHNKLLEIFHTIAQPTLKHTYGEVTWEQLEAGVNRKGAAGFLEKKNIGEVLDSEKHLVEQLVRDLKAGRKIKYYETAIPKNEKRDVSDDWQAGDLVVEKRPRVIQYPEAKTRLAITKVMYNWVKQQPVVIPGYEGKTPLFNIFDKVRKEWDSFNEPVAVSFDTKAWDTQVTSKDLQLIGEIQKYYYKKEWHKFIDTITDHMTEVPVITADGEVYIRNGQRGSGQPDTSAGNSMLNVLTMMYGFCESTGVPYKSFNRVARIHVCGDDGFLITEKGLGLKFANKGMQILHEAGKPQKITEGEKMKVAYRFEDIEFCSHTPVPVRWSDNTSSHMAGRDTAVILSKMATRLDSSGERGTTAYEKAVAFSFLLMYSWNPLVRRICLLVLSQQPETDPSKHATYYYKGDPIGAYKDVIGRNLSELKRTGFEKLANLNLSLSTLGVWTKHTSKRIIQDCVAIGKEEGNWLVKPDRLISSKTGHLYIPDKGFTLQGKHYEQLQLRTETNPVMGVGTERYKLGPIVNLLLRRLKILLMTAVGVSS
As for B1, the binding result is on record as “binds”. To B2 belongs “binds”; to B3, “binds”.

B4: the binding result is on record as “binds”.

For B5, the binding result is given as “binds”.

Turning to B6, the binding result is reported as “binds”.

For the molecule B7, the binding result was “binds”.
